Experimental findings from patent US20250074980A1 (BRIGHAM AND WOMEN S HOSPITAL, published 2025) are described below.

Where a chain is given by its changes, count along the chain named. In names and notes the source's numbering stands. Several values for one entry are separate records, joined by “and”; a condition that tells them apart may be missing. Identical values can stand only once.

The chains are these.
B1: chimeric antibody VH0/Vκ0 (antibody, IgG4, V domains shown)
VH: EVQLVESGGDLVKPGGSLKLACAASGFIFSSHGMSWVRQTPDKRLEWVATISSGGTYTYYPDSVKGRFTISRDNDKNTLYLQMNSLKSEDTAMYYCARHDFDYDAAWFAYWGQGTLVTVSS
VL: QIVLTQSPALMSASPGVKVTMTCSANSSVSYMYWYRQKPRSSPKPWIYLTSNLASGVPARFSGSGSGTSYSLTISSMEAEDAATYYCQQWSSNPPTFGSGTKLEIK
notes: IgG4 (S241P), kappa; also called VH0/Vκ0 (control); Chimeric VH0/Vκ0
B2: VH1/Vκ8 S29A (antibody, IgG4, V domains shown)
VH: B1 VH with V5L, D10G, K13Q, K19R, A21S, T40A, D42G, R44G, D75S, S88A
VL: EIVLTQSPATLSLSPGERATLSCRANSAVSYMYWYQQKPGQAPRPWIYLTSNRATGVPARFSGSGSGTDYTLTISSLEPEDFAVYYCQQWSSNPPTFGQGTKLEIK
notes: IgG4 (S241P), kappa; also called Parent; Parent (VH1/Vκ8 S29A)
B3: CP08H03/Vκ8 S29A (antibody, IgG4, V domains shown)
VH: EVQLLESGGGLVQPGGSLRLSCAASGFIFSSHGMSWVRQAPGKGLEWVATISSGGTYTYYPDSVKGRFTISRDNSKNTLYLQMNSLKAEDTAMYYCARHDFDYFPYWFAHWGQGTLVTVSS
VL: B2 VL
notes: IgG4 (S241P), kappa; also called CP08_H03/Parent VL; CP08_H03/Parental
B4: CP08H03/CP08F05 (antibody, V domains shown)
VH: B3 VH
VL: B2 VL with S91T
notes: IgG4 (S241P), kappa

One experiment concerns the target T1, His-tagged CEACAM1 (human, UniProt P13688 35-428).
T1 construct: 45 kDa SPR analyte; also called CEACAM1-HIS; CEACAM1 analyte
T1 sequence: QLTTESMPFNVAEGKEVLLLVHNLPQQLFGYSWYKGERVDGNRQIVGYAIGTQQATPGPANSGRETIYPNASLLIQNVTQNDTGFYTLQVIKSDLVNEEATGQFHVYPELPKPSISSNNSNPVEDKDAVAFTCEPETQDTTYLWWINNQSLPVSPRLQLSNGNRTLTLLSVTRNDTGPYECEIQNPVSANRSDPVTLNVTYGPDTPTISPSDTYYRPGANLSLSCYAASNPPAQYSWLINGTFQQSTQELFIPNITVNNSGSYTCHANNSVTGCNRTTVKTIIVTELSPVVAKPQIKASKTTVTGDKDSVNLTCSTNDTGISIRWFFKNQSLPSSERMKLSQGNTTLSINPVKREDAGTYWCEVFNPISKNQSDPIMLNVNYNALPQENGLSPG
The experiment is described as follows: SPR multi-cycle, purified IgG captured. How it is done: Variants CP08H03/Vκ8 S29A and CP08H03/CP08F05 were further analyzed using multi-cycle kinetics analysis, using a Biacore T200 instrument running Biacore T200 Evaluation Software V3.0.1. The purified antibodies were diluted to a concentration of 1 μg/ml in HBS-P+. At the start of each cycle, each antibody was captured on the Protein A surface to give an RL of ˜100 RU. Following capture, the surface was allowed to stabilize. Kinetic data was obtained using a flow rate of 80 μl/min to minimize any potential mass transfer effects. Multiple repeats of the blank (no CEACAM1) and a repeat of a single concentration of the analyte were programmed into the kinetic run in order to check the stability of both the surface and analyte over the kinetic cycles. For kinetic analysis, a two-fold dilution range was selected from 100 to 1.56 nM CEACAM1. The association phase of CEACAM1 was monitored for 150 seconds and the dissociation phase was measured for 150 seconds. Regeneration of the Protein A surface was conducted using two injections of 10 mM glycine-HCL pH 1.5 at the end of each cycle.
The signal from the reference channel Fc1 was subtracted from that of Fc2, Fc3 and Fc4 to correct for differences in non-specific binding to a reference surface, and a global Rmax parameter was used in the 1-to-1 binding model. The relative Kp compared to Parent (VH1/Vκ8 S29A) was calculated by dividing the Kp of the affinity matured composite human antibody variants by that of the Parent on the same chip. The kinetic parameters measured for the interaction of CEACAM1 with affinity matured CEACAM1 antibody variants CP08H03/Vκ8 S29A and CP08H03/CP08F05 are shown in Table 23.
B1: the Kd (usually a measure of binding affinity in units of concentration) is 0.095 µM and 0.1 µM; the koff (usually the first-order rate constant of dissociation) is 0.045 s⁻¹ and 0.035 s⁻¹; the on-rate constant (kon) (commonly the rate constant with which the complex forms) is 470000 M⁻¹ s⁻¹ and 350000 M⁻¹ s⁻¹.
Consider B2, for which the Kd is 0.42 µM and 0.49 µM; the koff was 0.045 s⁻¹ and 0.06 s⁻¹; the kon was 110000 M⁻¹ s⁻¹ and 120000 M⁻¹ s⁻¹; the “relative KD to parent” value was 1.
As to B3, the dissociation constant (Kd) worked out at 0.099 µM, the koff came to 0.009 s⁻¹, the kon was 91000 M⁻¹ s⁻¹ and the “relative KD to parent” value was found to be 4.3.
The matching figures for B4: 0.058 µM, 0.0078 s⁻¹, 130000 M⁻¹ s⁻¹ and 8.4.

The target in another experiment is T1, His-tagged CEACAM1. The experiment is described as follows: SPR single-cycle, purified IgG captured. Put shortly: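 Purified IgG was captured on a Series S Protein A chip in a Biacore T200 at 25° C in HBS-P+ (pH 7.4), with His-tagged CEACAM1 as the analyte in single-cycle kinetics surface plasmon resonance. Kon, koff and Kd were fitted from signals corrected for the reference channel and blank runs, and relative KD was calculated against the parent antibody tested alongside.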
Consider B2, for which the dissociation constant (Kd) worked out at 0.48 µM, the koff was 0.19 s⁻¹, the kon was determined as 400000 M⁻¹ s⁻¹ and the “relative KD to parent” value amounted to 1.
The matching figures for B3: 0.12 µM, 0.0075 s⁻¹, 63000 M⁻¹ s⁻¹ and 4.
The matching figures for B4: 0.095 µM, 0.0069 s⁻¹, 73000 M⁻¹ s⁻¹ and 5.

The next experiment deals with T1, His-tagged CEACAM1. The experiment in a line: SPR single-cycle, supernatant IgG captured. The gist of the method: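 IgG came from supernatants of HEK EBNA cells transiently transfected by PEI in 6-well plates and harvested 5-7 days later. Supernatants were quantified by ELISA and filtered. Single-cycle surface plasmon resonance was run on a Biacore T200 at 25° C in HBS-P+ (pH 7.4), with IgG captured on Protein A and His-tagged CEACAM1 as analyte. Kon, koff and Kd were fitted, and relative KD was calculated against the parent antibody assayed in the same experiment.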
Consider B2, for which binding was put at a Kd of 0.55 µM, the off-rate (koff) was 0.053 s⁻¹, the kon amounted to 96000 M⁻¹ s⁻¹ and the “relative KD to parent” value turned out to be 1.
On the same counts, the results for B3 are 0.13 µM, 0.0085 s⁻¹, 65000 M⁻¹ s⁻¹ and 4.2.
With B4, binding was characterised by a dissociation constant (Kd) of 0.11 µM, the koff was determined as 0.0074 s⁻¹, the kon came out at 70000 M⁻¹ s⁻¹ and the “relative KD to parent” value was determined as 5.2.

The next experiment addresses T2, CEACAM6 (recombinant protein) (human, UniProt P40199 35-320).
T2 construct: construct not described
T2 sequence (looked up): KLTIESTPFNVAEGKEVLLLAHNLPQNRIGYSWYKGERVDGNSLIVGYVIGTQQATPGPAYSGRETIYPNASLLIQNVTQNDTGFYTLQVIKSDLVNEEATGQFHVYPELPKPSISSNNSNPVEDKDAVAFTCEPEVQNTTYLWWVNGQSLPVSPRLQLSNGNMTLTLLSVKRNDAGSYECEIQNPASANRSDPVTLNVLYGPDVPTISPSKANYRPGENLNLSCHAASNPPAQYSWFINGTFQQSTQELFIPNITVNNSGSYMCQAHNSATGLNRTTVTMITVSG
The experiment in a line: SPR single-cycle kinetics, antibody captured on Protein A, CEACAM-6 injected at three rising concentrations [Cont.]. How it is done: In order to assess the binding of the humanized, affinity matured reformatted lead IgGs, single-cycle kinetics analysis was performed on crude supernatants using a Biacore T200 running Biacore T200 Control Software V2.0.1 and Biacore T200 Evaluation Software V3.0. Antibodies were diluted in HBS-P+ to a final concentration of 0.5 μg/ml. At the start of each cycle, antibodies were loaded onto Fc2, Fc3 and Fc4 of the Protein A chip. IgGs were captured at a flow rate of 10 μl/min to give an immobilisation level (RL) of ˜100 RU (a level calculated to obtain a Rₘₐₓ of ˜50-150 RU once the analyte is bound). The surface was then allowed to stabilize. Single-cycle kinetics data was obtained with CEACAM1 as the analyte at a flow rate of 80 μl/min to minimize any potential mass transfer effects. Multiple repeats with the parent (VH1/Vκ8 S29A) antibody were performed to check the stability of the surface and analyte over the kinetic cycles. The signal from the reference channel Fc1 (no antibody) was subtracted from that of Fc2, Fc3 and Fc4 to correct for differences in non-specific binding to the reference surface. A three point, two-fold dilution range from 70 nM to 280 nM CEACAM1 without regeneration between each concentration was used. The signal from each antibody blank run (no CEACAM1) was subtracted to correct for differences in surface stability. The association phase for the three injections of increasing concentrations of CEACAM1 was monitored for 80 seconds each time and a single dissociation phase was measured for 150 seconds following the last injection of CEACAM1. Regeneration of the Protein A surface was conducted using two injections of 10 mM glycine-HCL pH 1.5 followed by a stabilization period of 250 seconds.
To further assess the binding selectivity of CEACAM1 antibodies VH0/Vκ0, CP08H03/Vκ8 S29A, CP08H03/CP08F05 CEACAM1 over other proteins, binding affinities to CEACAM1, CEACAM3, CEACAM5, and CEACAM6 were compared using single-cycle kinetics analysis performed as described above. Single cycle kinetics was conducted using CEACAM concentrations from 280 nM to 70 nM.
Consider B1, for which the binding result is given as “no binding”.
On the same count and under the same terms, for B3 the value was “no binding”; for B4, “no binding”.
